Results from the RNAGym collection of RNA variant scans (doi:10.1093/molbev/msab373).

B1: Azoarcus group I ribozyme (parent)
chain: GUGCCUUGCGCCGGGAAACCACGCAAGGGAUGGUGUCAAAUUCGGCGAAACCUAAGCGCCCGCCCGGGCGUAUGGCAACGCCGAGCCAAGCUUCGGCGCCUGCGCCGAUGAAGGUGUAGAGACUAGACGGCACCCACCUAAGGCAAACGCUAUGGUGAAGGCAUAGUCCAGGGAGUGGCGAAAGUCACACAAACCGG

Variants of: B1
Assay: reverse-splicing fitness (ratio to wild type); higher = more active; in vitro selection; Mg2+ level not given
Outline: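 An in vitro group I ribozyme library with randomized positions was T7-transcribed and gel-purified. In triplicate, 10 pmol RNA in EPPS pH 7.5 was reacted with 50 pmoles of a 30-nt RNA substrate for 1 h at 37 °C across several added MgCl2 levels (1–48 mM), then stopped with EDTA. Products were reverse transcribed from a substrate-complementary primer, PCR-amplified and sequenced (HiSeq 4000). Fitness is a variant's read proportion after selection over that before, normalised to wild type.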

First: GUGCCUUGCGCCGGGAAACCACGCAAGGGAUGGUGUCAAAUUCGGCGAAACCUAAGCGCCCGCCCGGGCGUAUGGCAACGCAGAGCCAAGCUUCGGCGCCUGCGCCGAUGUAGGUGUAGAGACUAGACGGCACCCACCUAAGGCGAACGGUAUGGUGAAGGCAUAGUCUAGGGAGUGGCGAAAGUCACACAAACCGG
Second: GUGCCUUGCGCCGGGAAACCACGCAAGGGAUGGUGUCAAAUUCGGCGAAACCUAAGCGCCCGCCCGGGCGUAUGGCAACGCAGAGCCAAGCUUCGGCGCCUGCGCCGAUGUAGGUGUAGAGACUAGACGGCACCCACCUAAGGCGAACGGUAUGGUGAAGGCAUAGUCAAGGGAGUGGCGAAAGUCACACAAACCGG
The reverse-splicing fitness of the first is higher: 0.0101 for the first, 0.0097 for the second.

Compared with GUGCCUUGCGCCGGGAAACCACGCAAGGGAUGGUGUCAAAUUCGGCGAAACCUAAGCGCCCGCCCGGGCGUAUGGCAACGCAGAGCCAAGCUUCGGCGCCUGCGCCGAUGUAGGUGUAGAGACUAGACGGCACCCACCUAAGGCGAACGGUAUGGUGAAGGCAUAGUCGAGGGAGUGGCGAAAGUCACACAAACCGG, GUGCCUUGCGCCGGGAAACCACGCAAGGGAUGGUGUCAAAUUCGGCGAAACCUAAGCGCCCGCCCGGGCGUAUGGCAACGCAGAGCCAAGCUUCGGCGCCUGCGCCGAUGUAGGUGUAGAGACUAGACGGCACCCACCUAAGGCGAACGGUAUGGUGAAGGCAUAGUCUAGGGAGAGGCGAAAGUCACACAAACCGG is higher in reverse-splicing fitness: 0.00774 for the first, 0.0134 for the second.

Compared with GUGCCUUGCGCCGGGAAACCACGCAAGGGAUGGUGUCAAAUUCGGCGAAACCUAAGCGCCCGCCCGGGCGUAUGGCAACGCAGAGCCAAGCUUCGGCGCCUGCGCCGAUGUAGGUGUAGAGACUAGACGGCACCCACCUAAGGCGAACGAUAUGGUGAAGGCAUAGUCUAGGGAGGGGCGAAAGUCACACAAACCGG, GUGCCUUGCGCCGGGAAACCACGCAAGGGAUGGUGUCAAAUUCGGCGAAACCUAAGCGCCCGCCCGGGCGUAUGGCAACGCAGAGCCAAGCUUCGGCGCCUGCGCCGAUGUAGGUGUAGAGACUAGACGGCACCCACCUAAGGCGAACGAUAUGGUGAAGGCAUAGUCCAGGGAGGGGCGAAAGUCACACAAACCGG is higher in reverse-splicing fitness: 0.00831 for the first, 0.0112 for the second.

First: GUGCCUUGCGCCGGGAAACCACGCAAGGGAUGGUGUCAAAUUCGGCGAAACCUAAGCGCCCGCCCGGGCGUAUGGCAACGCAGAGCCAAGCUUCGGCGCCUGCGCCGAUGUAGGUGUAGAGACUAGACGGCACCCACCUAAGGCGAACGAUAUGGUGAAGGCAUAGUCCAGGGAGCGGCGAAAGUCACACAAACCGG
Second: GUGCCUUGCGCCGGGAAACCACGCAAGGGAUGGUGUCAAAUUCGGCGAAACCUAAGCGCCCGCCCGGGCGUAUGGCAACGCAGAGCCAAGCUUCGGCGCCUGCGCCGAUGUAGGUGUAGAGACUAGACGGCACCCACCUAAGGCGAACGAUAUGGUGAAGGCAUAGUCCAGGGAGAGGCGAAAGUCACACAAACCGG
The reverse-splicing fitness of the first is higher: 0.0448 for the first, 0.0206 for the second.

Compared with GUGCCUUGCGCCGGGAAACCACGCAAGGGAUGGUGUCAAAUUCGGCGAAACCUAAGCGCCCGCCCGGGCGUAUGGCAACGCAGAGCCAAGCUUCGGCGCCUGCGCCGAUGUAGGUGUAGAGACUAGACGGCACCCACCUAAGGCGAACGGUAUGGUGAAGGCAUAGUCGAGGGAGCGGCGAAAGUCACACAAACCGG, GUGCCUUGCGCCGGGAAACCACGCAAGGGAUGGUGUCAAAUUCGGCGAAACCUAAGCGCCCGCCCGGGCGUAUGGCAACGCAGAGCCAAGCUUCGGCGCCUGCGCCGAUGUAGGUGUAGAGACUAGACGGCACCCACCUAAGGCGAACGGUAUGGUGAAGGCAUAGUCGAGGGAGAGGCGAAAGUCACACAAACCGG is lower in reverse-splicing fitness: 0.0133 for the first, 0.0117 for the second.

Going from GUGCCUUGCGCCGGGAAACCACGCAAGGGAUGGUGUCAAAUUCGGCGAAACCUAAGCGCCCGCCCGGGCGUAUGGCAACGCAGAGCCAAGCUUCGGCGCCUGCGCCGAUGUAGGUGUAGAGACUAGACGGCACCCACCUAAGGCGAACGGUAUGGUGAAGGCAUAGUCGAGGGAGGGGCGAAAGUCACACAAACCGG to GUGCCUUGCGCCGGGAAACCACGCAAGGGAUGGUGUCAAAUUCGGCGAAACCUAAGCGCCCGCCCGGGCGUAUGGCAACGCAGAGCCAAGCUUCGGCGCCUGCGCCGAUGUAGGUGUAGAGACUAGACGGCACCCACCUAAGGCGAACGGUAUGGUGAAGGCAUAGUCCAGGGAGUGGCGAAAGUCACACAAACCGG, the reverse-splicing fitness rises from 0.00649 to 0.0263.

First: GUGCCUUGCGCCGGGAAACCACGCAAGGGAUGGUGUCAAAUUCGGCGAAACCUAAGCGCCCGCCCGGGCGUAUGGCAACGCAGAGCCAAGCUUCGGCGCCUGCGCCGAUGUAGGUGUAGAGACUAGACGGCACCCACCUAAGGCGAACGGUAUGGUGAAGGCAUAGUCAAGGGAGAGGCGAAAGUCACACAAACCGG
Second: GUGCCUUGCGCCGGGAAACCACGCAAGGGAUGGUGUCAAAUUCGGCGAAACCUAAGCGCCCGCCCGGGCGUAUGGCAACGCAGAGCCAAGCUUCGGCGCCUGCGCCGAUGUAGGUGUAGAGACUAGACGGCACCCACCUAAGGCGAACGGUAUGGUGAAGGCAUAGUCAAGGGAGCGGCGAAAGUCACACAAACCGG
The reverse-splicing fitness of the first is higher: 0.0138 for the first, 0.0137 for the second.

Work on GUGCCUUGCGCCGGGAAACCACGCAAGGGAUGGUGUCAAAUUCGGCGAAACCUAAGCGCCCGCCCGGGCGUAUGGCAACGCAGAGCCAAGCUUCGGCGCCUGCGCCGAUGUAGGUGUAGAGACUAGACGGCACCCACCUAAGGCGAACGGUAUGGUGAAGGCAUAGUCAAGGGAGGGGCGAAAGUCACACAAACCGG yielded a reverse-splicing fitness of 0.0091.
